# Measured values published in patent US20100233154A1, “TARGETED BINDING AGENTS DIRECTED TO HEPARANASE AND USES THEREOF 463” (MedImmune Limited, priority 2008, published 2010).
# Columns and labels:
# [1] = target: T1, recombinant human heparanase (Homo sapiens, UniProt Q9Y251); experiment: ELISA binding to directly coated recombinant human heparanase
# T1 construct: Heparanase 8 and 50 kDa sub-units were cloned into pacGP67 as Sma 1-EcoR1 fragments; made in house; host or cells: Hi5 insect cells, baculovirus (pFastBac Dual)
# T1 sequence (Q9Y251 158-543 limits assumed): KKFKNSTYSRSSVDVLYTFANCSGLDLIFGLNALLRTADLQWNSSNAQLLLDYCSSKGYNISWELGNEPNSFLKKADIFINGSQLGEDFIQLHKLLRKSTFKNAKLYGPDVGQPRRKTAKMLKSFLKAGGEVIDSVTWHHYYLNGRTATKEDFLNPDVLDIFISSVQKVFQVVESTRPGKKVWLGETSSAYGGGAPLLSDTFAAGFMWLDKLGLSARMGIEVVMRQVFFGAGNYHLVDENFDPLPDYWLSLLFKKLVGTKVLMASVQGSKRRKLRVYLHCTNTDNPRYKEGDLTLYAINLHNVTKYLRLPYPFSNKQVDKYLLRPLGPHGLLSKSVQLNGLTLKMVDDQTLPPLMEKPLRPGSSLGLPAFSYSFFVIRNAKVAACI
# T1 sequence (Q9Y251 36-109 limits assumed): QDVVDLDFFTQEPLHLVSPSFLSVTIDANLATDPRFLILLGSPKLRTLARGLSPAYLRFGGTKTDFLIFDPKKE
# Protocol: (§1) Titres of antibodies from Campaigns 1 and 2 were determined in an ELISA. Costar 3368 medium binding plates were coated directly with recombinant human heparanase or plates were coated with Rabbit anti-heparanase antibody (Raybiotech, Cat. IP-14-155) to capture recombinant heparanase. Directly coated heparanase was detected in three separate plates by mouse (InSight Cat. INS-26-1-0000), goat (Santa Cruz, Cat. sc26136) or rabbit (Raybiotech, Cat. IP-14-155) anti-heparanase antibodies, and quantified using appropriate secondary antibodies. Antibody captured heparanase was detected using mouse anti-heparanase (Insight Cat. INS-26-1-0000). At the end of the immunisation program, fusions were performed using mouse myeloma cells and lymphocytes isolated from the spleens and lymph nodes of the immunised mice by means of electroporation, as described in Example 2.
# (§2) Initial screening to detect antibodies binding to human heparanase in both direct coating and antibody capture ELISAs as described above identified 800 hybridomas for further testing; 535 IgG2 from Campaign 1 and 2 and 265 IgG4 from Campaign 2. Enzyme inhibition assays and cross species binding to cynomolgus and murine heparanase, in an antibody capture ELISA, identifed 12 antibodies that were taken forward for sub-cloning to provide purified antibodies for further analysis. Subsequently, confirmation of activity against human heparanase (FIGS. 3 and 4) and inhibition of recombinant cynomolgus and murine heparanase activity in the HS-cryptate degradation assay (FIG. 5a-c), together with sequence analysis, identified 8 antibodies that are described in the table below.
# [2] = target: T2, murine heparanase (Mus musculus, UniProt Q6YGZ1); experiment: Cross species capture ELISA, murine heparanase; assay type: binding; details: min 0.06, max 0.9 OD units
# T2 construct: made in house; host or cells: Hek293 cells (conditioned medium), inferred for the ELISA
# T2 sequence (Q6YGZ1 28-535): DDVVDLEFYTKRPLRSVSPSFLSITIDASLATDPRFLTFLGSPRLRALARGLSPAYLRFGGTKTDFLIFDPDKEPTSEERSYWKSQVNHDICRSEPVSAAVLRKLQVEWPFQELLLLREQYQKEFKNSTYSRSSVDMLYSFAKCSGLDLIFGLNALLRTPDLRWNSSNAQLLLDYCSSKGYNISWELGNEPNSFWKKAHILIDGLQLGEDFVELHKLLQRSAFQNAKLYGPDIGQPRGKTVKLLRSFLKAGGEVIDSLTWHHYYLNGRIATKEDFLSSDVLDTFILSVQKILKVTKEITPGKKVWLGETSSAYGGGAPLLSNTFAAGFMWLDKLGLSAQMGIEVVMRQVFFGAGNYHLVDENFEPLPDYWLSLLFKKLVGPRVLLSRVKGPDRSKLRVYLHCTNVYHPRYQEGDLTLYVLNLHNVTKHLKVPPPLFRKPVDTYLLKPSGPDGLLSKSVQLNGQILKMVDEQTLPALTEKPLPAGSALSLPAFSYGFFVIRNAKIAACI
# Protocol: (§3) Initially, cross species binding to human, murine and cynomolgus heparanase was determined in an ELISA assay in which heparanase was captured onto plates using a rabbit anti-heparanase antibody (Raybiotech, Cat. IP-14-155). Exhaustive supernatants were added to the plates at a final dilution of 1:5 and bound antibody detected with a rabbit anti-human IgG Fc.
# [3] = target: T3, human heparanase (Homo sapiens, UniProt Q9Y251); experiment: Cross species capture ELISA, human heparanase; assay type: binding
# T3 sequence (Q9Y251 36-543): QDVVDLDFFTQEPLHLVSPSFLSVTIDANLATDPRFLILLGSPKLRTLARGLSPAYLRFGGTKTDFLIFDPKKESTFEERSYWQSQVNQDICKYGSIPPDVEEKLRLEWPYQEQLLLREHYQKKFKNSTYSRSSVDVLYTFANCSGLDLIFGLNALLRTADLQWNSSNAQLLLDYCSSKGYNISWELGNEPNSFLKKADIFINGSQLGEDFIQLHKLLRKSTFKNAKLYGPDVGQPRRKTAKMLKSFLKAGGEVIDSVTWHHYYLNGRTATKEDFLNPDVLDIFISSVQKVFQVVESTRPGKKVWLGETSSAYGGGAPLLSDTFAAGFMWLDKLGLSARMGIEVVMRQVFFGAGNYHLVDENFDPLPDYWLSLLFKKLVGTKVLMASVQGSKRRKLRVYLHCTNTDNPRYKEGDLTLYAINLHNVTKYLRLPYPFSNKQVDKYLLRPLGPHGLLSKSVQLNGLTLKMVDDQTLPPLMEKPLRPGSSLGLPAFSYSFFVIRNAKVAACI
# Protocol: as §3
# [4] = target: T4, recombinant heparanase captured with rabbit anti-heparanase antibody (Homo sapiens, UniProt Q9Y251); experiment: ELISA binding to antibody-captured heparanase; details: antibody capture
# T4 construct: Heparanase 8 and 50 kDa sub-units were cloned into pacGP67 as Sma 1-EcoR1 fragments; made in house; host or cells: Hi5 insect cells, baculovirus (pFastBac Dual)
# T4 sequence (Q9Y251 158-543 limits assumed): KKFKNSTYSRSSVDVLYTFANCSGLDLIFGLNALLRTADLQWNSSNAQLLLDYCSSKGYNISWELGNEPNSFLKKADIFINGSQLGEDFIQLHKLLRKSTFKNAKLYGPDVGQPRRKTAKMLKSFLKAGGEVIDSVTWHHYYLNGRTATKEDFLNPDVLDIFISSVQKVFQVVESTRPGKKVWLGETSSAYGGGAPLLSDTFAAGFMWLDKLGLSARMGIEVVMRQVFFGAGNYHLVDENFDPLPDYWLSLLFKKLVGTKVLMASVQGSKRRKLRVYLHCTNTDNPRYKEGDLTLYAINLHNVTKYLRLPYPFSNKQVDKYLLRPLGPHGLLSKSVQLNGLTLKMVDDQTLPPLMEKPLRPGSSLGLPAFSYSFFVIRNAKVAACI
# T4 sequence (Q9Y251 36-109 limits assumed): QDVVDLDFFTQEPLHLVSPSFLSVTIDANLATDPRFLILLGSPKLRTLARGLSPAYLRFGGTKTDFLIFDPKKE
# Protocol: as §1, §2
# [5] = tested on: cynomolgus heparanase; experiment: Cross species capture ELISA, cynomolgus heparanase; assay type: binding; details: min 0.06, max 1.5 OD units
# Protocol: as §3
# [6] = tested on: MCF7-Hpa1#19 xenograft; experiment: Subcutaneous xenograft tumour growth, MCF7-Hpa1#19; assay type: in vivo, SCID mice; details: once weekly i.p.; 10E9.1 at 7.5 or 15 mg per kg
# Protocol: (§4) MCF7-Hpa1#19 and HCT116 tumour cells were harvested from sub-confluent cultures. A total of 5×10^6 (MCF7-Hpa1#19) or 10^7 (HCT116) tumour cells were inoculated subcutaneously into the flank of male SCID mice. HCT116 tumour cells were implanted in PBS; […] cells were implanted in PBS containing 50% matrigel.
# (§5) When tumours had attained ˜200 mm^3, tumour bearing mice were randomised into treatment groups and dosed with the following; PBS; an isotype matched control IgG2 antibody, 15 mg per kg; anti-heparanase antibody 10E9.1, 7.5 or 15 mg per kg. All treatments were administered once weekly i.p. Tumour growth was measured twice per week using calipers and tumour volumes calculated according to an ellipsoid volume is formula (3.142/6×length×width×width) from measures of the largest tumour diameter and two opposing widths (FIG. 11).
# [7] = tested on: MDA MB231-Hpa1#4 cells; experiment: Heparanase expression in cells cultured with antibody (Western blot); assay type: cell-based, human; details: 25 μg per ml antibody, 72 hrs, compared to untreated or IgG2 control
# Protocol: MDA MB231-Hpa1#4 cells were cultured in the presence of 25 μg per ml anti-human heparanase antibody or control IgG2 antibody (Sigma Cat. No. 1504-1MG) for 72 hrs. Following the removal of culture medium, protein extracts were prepared from the cells in 100 μl RIPA buffer and separated on […] gels and transferred to nitrocellulose as described above. Western blots were probed with an anti-heparanase antibody that detected only pro-heparanase (SantaCruz Cat. No. SC25825).
# [8] = tested on: HCT116 xenograft; experiment: Subcutaneous xenograft tumour growth, HCT116; assay type: in vivo, SCID mice; details: once weekly i.p.; 10E9.1 at 15 mg per kg
# Protocol: as §4, §5
# [9] = target: T5, Recombinant Hpa1 (Homo sapiens, UniProt Q9Y251); experiment: Medium resolution Biacore affinity; assay type: binding
# T5 construct: Heparanase 8 and 50 kDa sub-units were cloned into pacGP67 as Sma 1-EcoR1 fragments; made in house; host or cells: Hi5 insect cells, baculovirus (pFastBac Dual)
# T5 sequence (Q9Y251 158-543 limits assumed): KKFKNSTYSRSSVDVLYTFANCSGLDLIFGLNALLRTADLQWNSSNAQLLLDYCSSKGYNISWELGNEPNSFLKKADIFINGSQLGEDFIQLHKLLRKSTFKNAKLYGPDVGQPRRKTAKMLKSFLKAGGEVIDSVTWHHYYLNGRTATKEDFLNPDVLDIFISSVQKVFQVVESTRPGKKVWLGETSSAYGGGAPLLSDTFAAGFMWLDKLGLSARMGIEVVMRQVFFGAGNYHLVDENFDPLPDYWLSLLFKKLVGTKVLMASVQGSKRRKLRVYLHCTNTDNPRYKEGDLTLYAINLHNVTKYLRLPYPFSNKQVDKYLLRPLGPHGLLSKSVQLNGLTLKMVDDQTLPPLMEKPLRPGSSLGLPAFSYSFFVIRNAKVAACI
# T5 sequence (Q9Y251 36-109 limits assumed): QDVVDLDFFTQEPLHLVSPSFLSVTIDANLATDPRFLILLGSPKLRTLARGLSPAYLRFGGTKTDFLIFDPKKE
# Protocol: For medium resolution Biacore™ tests, cloned and purified antibodies were used. Each of three purified antibodies (10E9.1, 15A1.2, and 15A11.1) were captured onto a high-density goat anti-human antibody surface over a CM4 Biacore™ chip. Recombinant Hpa1 was diluted to the desired concentration (1 nM and 10 nM) in 10 mM HEPES, 150 mM NaCl, 0.005% tween-20, 0.1 mg per ml BSA pH7.4 (25° C.) immediately prior to injection. Data were fit globally to a 1:1 interaction model with a term for mass transport included. The resulting KD values are summarised below in Table 4.
# [10] = purified antibody captured on CM4 chip, Hpa1 1 nM and 10 nM, 25° C.
Molecule,Binding to direct coated heparanase [1] [OD units],Binding to heparanase Mouse [2] [OD units],Binding to heparanase Human [3] [OD units],Binding to captured heparanase [4] [OD units],Binding to heparanase Cyno [5] [OD units],Tumour growth inhibition [6],Inhibition of heparanase expression [7],Tumour growth inhibition [8],Kd ([9]; 1:1 interaction model with mass transport term) [nM],"ka [9, 10] [M⁻¹ s⁻¹]","kd [9, 10] [s⁻¹]"
"7B9.1: human anti-heparanase monoclonal antibody, G4λ; VH SEQ ID NO 22, VL SEQ ID NO 24 (antibody, listed as Homo Sapiens, V domains shown) VH: QVQLVESGGGVVQPGRSLRLSCAASGFTFSSYGMHWVRQAPGKGLEWVAVIWYDGSNKYYADSVKGRFTISRDNSKNTLYLQMNSLRAEDTAVYYCAREGAPYSSSDAFDIWGQGTMVTVSS VL: QSVLTQPPSVSGAPGQRVTISCTGSSSNIGANYDVHWYQQLPGTAPKLLIYGDNNRPSGVPDRFSGSKSGTSASLAITGLQAEDEADYYCQSYDSSLSGSVFGGGTKLTVL",3.78,0.58,0.68,6.0,1.06,,,,,,
"16G1.1: human anti-heparanase monoclonal antibody, G4κ; VH SEQ ID NO 14, VL SEQ ID NO 16 (antibody, listed as Homo Sapiens, V domains shown) VH: QVQLVESGGGVVQPGRSLRLSCAASGFTFSSYGMHWVRQAPGKGLEWVAVIWYDGSNKYYADSVKGRFTISRDNSKNTLNLQMNSLRAEDTAVYYCGRDPGTYHYYYHGMDVWGQGTTVTVSS VL: YIVMTQSPLSLPVTPGEPASISCRSSQSLLHSNGYNFLDWYLQKPGQSPQLLIYLGSNRASGVPDRFSGSGSGTDFTLKINRVEAEDVGVYYCMQALQTPITFGQGTRLEIK",3.63,0.61,1.84,3.82,1.64,,,,,,
"15A1.2: fully human anti-heparanase monoclonal antibody, G2κ; VH SEQ ID NO 6, VL SEQ ID NO 8; ATCC PTA-9491 (antibody, listed as Homo Sapiens, V domains shown, fully human anti-heparanase monoclonal antibody, G2κ; ATCC PTA-9491) VH: QVQLVQSGAEVKKPGASVKVSCKVSGYTLTELSMHWVRQAPGKGLEWMGGFDPEDGETIFAQKFQGRVTMTEDTSTDTAYMELSSLRSEDTAVYYCATGLRFLEWFLWGWDVWGQGTTVTVSS VL: DIQMTQSPSSVSASVGDRVTITCRASQGISNWLAWYQQTPGKAPQLLIYGASSLQSGVPSRFSGSGSGTDFTLTISSLQPEDFATYYCQQADSFPPTFGQGTKVEIK",0.08,0.14,0.19,0.92,0.11,not inhibited,significant inhibition of heparanase expression,not inhibited,0.0859,1.88e+06,0.000105
"14H12.3: human anti-heparanase monoclonal antibody, G2λ; VH SEQ ID NO 26, VL SEQ ID NO 28 (antibody, listed as Homo Sapiens, V domains shown) VH: QVQLVESGGGVVQPGRSLRLSCAASGFTFSSYGMHWVRQAPGKGLEWVAVIWYDGSNKDYADSVKGRFTISRDNSKNTLYLQMNSLRAEDTAVYYCAREGSTSWTDYYGMDVWGQGTTVTVSS VL: SYELTQPPSVSVSPGQTARITCSGDALPKRYAYWYQQKSGQALVLVIYEDSKRPSGIPERFSGSSSGTMATLTISGAQVEDEADYYCYSIDSSGNHGVFGGGTKLTVL",3.69,0.14,0.61,3.27,0.95,,,,,,
